Measurements as given in publication PMC4226739 (The Journal of Cell Biology, 2014).
Values belong to the binder of their own block, whether it stands above or below them.

Legend:
Test in all cases: FRAP in micropatterns
[1] = biological target: STAT2 fused to tagRFP-T (STAT2-tagRFP) (UniProt P52630 1-851)
[2] = biological target: STAT2 fused to monomeric EGFP (STAT2-EGFP) (UniProt P52630 1-851)
[3] = biological target: tyk2 fused to monomeric EGFP (tyk2-EGFP) (UniProt P29597 1-1187)
tyk2 fused to monomeric EGFP (tyk2-EGFP), sequence (P29597 whole entry, the tested form may be a part): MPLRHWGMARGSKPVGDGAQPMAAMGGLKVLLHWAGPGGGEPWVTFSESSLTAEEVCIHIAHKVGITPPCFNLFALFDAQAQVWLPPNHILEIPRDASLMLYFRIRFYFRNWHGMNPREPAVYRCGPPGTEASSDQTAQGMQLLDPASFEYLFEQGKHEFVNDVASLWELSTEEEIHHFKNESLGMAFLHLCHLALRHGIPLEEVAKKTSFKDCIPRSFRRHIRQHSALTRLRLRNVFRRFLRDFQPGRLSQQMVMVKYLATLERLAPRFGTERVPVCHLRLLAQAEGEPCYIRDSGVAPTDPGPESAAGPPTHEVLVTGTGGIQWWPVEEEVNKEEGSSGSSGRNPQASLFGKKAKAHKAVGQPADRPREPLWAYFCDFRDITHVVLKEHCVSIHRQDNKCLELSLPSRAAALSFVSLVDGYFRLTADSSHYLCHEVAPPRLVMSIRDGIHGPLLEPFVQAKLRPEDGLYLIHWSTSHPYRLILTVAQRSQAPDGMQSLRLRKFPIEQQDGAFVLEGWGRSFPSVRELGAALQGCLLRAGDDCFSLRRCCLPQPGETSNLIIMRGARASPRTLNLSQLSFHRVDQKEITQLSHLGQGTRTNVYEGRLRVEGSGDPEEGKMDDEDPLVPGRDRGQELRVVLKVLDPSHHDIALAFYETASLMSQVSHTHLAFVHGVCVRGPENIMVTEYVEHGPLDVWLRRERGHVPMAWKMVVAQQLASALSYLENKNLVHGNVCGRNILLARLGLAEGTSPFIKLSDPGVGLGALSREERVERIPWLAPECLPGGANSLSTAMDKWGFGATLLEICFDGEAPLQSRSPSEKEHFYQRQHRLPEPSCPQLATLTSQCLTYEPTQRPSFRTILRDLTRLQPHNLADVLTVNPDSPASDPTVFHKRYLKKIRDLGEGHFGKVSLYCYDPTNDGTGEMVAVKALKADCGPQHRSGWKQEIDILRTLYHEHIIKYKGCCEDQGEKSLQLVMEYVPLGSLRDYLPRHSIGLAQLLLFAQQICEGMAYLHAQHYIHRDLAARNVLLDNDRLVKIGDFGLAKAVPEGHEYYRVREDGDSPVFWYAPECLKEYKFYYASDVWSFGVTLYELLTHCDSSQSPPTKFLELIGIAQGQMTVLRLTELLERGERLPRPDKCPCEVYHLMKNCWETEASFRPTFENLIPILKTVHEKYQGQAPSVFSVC

STAT2 fused to tagRFP-T (STAT2-tagRFP), sequence (P52630 whole entry, the tested form may be a part): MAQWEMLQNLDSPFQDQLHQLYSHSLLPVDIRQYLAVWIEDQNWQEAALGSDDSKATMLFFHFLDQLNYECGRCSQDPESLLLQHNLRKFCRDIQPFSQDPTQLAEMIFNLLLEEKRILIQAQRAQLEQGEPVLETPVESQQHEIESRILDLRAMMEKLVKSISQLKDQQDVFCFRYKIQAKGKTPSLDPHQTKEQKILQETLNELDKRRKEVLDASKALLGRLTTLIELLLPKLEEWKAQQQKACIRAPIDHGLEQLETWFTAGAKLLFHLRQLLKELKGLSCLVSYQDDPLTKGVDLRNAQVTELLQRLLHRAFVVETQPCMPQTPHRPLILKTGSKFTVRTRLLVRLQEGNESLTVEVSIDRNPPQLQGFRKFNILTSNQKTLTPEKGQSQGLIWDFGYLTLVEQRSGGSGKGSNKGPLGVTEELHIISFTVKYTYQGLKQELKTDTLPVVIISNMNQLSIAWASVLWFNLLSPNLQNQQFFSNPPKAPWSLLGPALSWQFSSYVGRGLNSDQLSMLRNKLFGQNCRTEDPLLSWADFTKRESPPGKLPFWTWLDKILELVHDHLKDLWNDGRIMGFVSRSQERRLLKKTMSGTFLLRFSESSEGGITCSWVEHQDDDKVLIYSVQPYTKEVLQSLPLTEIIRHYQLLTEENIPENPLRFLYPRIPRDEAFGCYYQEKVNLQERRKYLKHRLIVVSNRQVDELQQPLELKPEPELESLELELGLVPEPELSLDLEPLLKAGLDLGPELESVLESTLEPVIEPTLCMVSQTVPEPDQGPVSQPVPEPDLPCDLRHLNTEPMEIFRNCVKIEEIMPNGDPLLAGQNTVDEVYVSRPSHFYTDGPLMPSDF
STAT2 fused to monomeric EGFP (STAT2-EGFP), sequence (P52630 whole entry, the tested form may be a part): as above

koff [1]: 0.015 ± 0.005 s⁻¹
koff [2]: 0.12 ± 0.05 s⁻¹
B1: HaloTag-IFNAR2 (receptor)
chain: ISYDSPDYTDESCTFKISLRNFRSILSWELKNHSIVPTHYTLLYTIMSKPEDLKVVKNCANTTRSFCDLTDEWRSTHEAYVTVLEGFSGNTTLFSCSHNFWLAIDMSFEPPEFEIVGFTNHINVMVKFPSIVEEELQFDLSLVIEEQSEGIVKKHKPEIKGNMSGNFTYIIDKLIPNTNYCVSVYLEHSDEQAVIKSPLKCTLLPPGQESESAESAKIGGIITVFLIALVLTSTIVTLKWIGYICLRNSLPKVLNFHNFLAWPFPNLPPLEAMDMVEVIYINRKKKVWDYNYDDESDSDTEAAPRTSGGGYTMHGLTVRPLGQASATSTESQLIDPESEEEPDLPEVDVELPTMPKDSPQQLELLSGPCERRKSPLQDPFPEEDYSSTEGSGGRITFNVDLNSVFLRVLDDEDSDDLEAPLMLSSHLEEMVDPEDPDNVQSNHLLASGEGTQPTFPSPSSEGLWSEDAPSDQSDTSESDVDLGDGYIMR

koff [3]: ~0.0025 s⁻¹
B2: IFNAR1 fused to an N-terminal HaloTag (HaloTag-IFNAR1) (receptor)
chain: KNLKSPQKVEVDIIDDNFILRWNRSDESVGNVTFSFDYQKTGMDNWIKLSGCQNITSTKCNFSSLKLNVYEEIKLRIRAEKENTSSWYEVDSFTPFRKAQIGPPEVHLEAEDKAIVIHISPGTKDSVMWALDGLSFTYSLVIWKNSSGVEERIENIYSRHKIYKLSPETTYCLKVKAALLTSWKIGVYSPVHCIKTTVENELPPPENIEVSVQNQNYVLKWDYTYANMTFQVQWLHAFLKRNPGNHLYKWKQIPDCENVKTTQCVFPQNVFQKGIYLLRVQASDGNNTSFWSEEIKFDTEIQAFLLPPVFNIRSLSDSFHIYIGAPKQSGNTPVIQDYPLIYEIIFWENTSNAERKIIEKKTDVTVPNLKPLTVYCVKARAHTMDEKLNKSSVFSDAVCEKTKPGNTSKIWLIVGICIALFALPFVIYAAKVFLRCINYVFFPSLKPSSSIDEYFSEQPLKNLLLSTSEEQIEKCFIIENISTIATVEETNQTDEDHKKYSSQTSQDSGNYSNEDESESKTSEELQQDFV
